In patent US20220218001A1, “REDOX ENZYMES IN ANIMAL FEED COMPOSITIONS” (Novozymes A/S, priority 2019, published 2022):

What was measured:
[1] = commercial SODs from Sigma set as specific activity reference; cited from earlier work
[2] = Gastric stability assay of SODs; format: in vitro ADME; conditions: 37° C., reference activity at pH7.0 without stress
Description: Gastric stability was assayed with artificial gastric juice as stress condition. 20 μl SOD with appropriate dilution was added into 180 μl stress buffer (100 mM NaCl, 0.0013M HCl at pH3.0). The stress buffer with pepsin was prepared by adding 1.11 mg/ml pepsin (from porcine gastric mucosa, P7000, Sigma, 474 U/mg). The mixture was incubated at 37° C. in thermomixer for 0, 15, 30, 45, 60, 90, and 120 minutes separately. 10 μl sample extracted from the mixture was added into 90 μl activity buffer (K2HPO4/KH2PO4 mixed with final concentration of 100 mM PBS at pH7.0) as stop mixture. Then 20 μl stop mixture was added into 200 μl WST solution (or CytoC solution at pH7.8), and finally 20 μl coupled enzyme solution from kit was added to measure absorbance. The absorbance was measured at 450 nm for Sigma SOD kit (or 550 nm at pH 7.8) for 20 minutes at 37° C. (interval 40 sec, shake before first read). The activity at pH7.0 without stress condition was set as reference, and the residual activity at stress condition (pH3.0, pH3.0+pepsin) compared with reference was calculated as relative stability.

[3] = system: reactive oxygen metabolites (ROM) and Plasma antioxidant capability (PAT); assay: Oxidative stress index FRAS5 (d-ROM, PAT) in plasma; format: in vivo, piglets; conditions: piglet plasma
Description: An oxidative stress index was calculated as the ratio of reactive oxygen metabolites (ROM) and Plasma antioxidant capability (PAT) determined in plasma and liver lysate samples. ROM and
PAT were analyzed using commercially methods (d-ROM fast test and PAT test) on FRAS5 instrument (Innovatics Laboratory, Philadelphia, USA). For d-ROM test, 10 μL of sample was mixed with an acidic buffer. Then, a chromogen was added, and measured photometrically at 505 nm. The results are expressed in UCarr (1 UCarr=0.08 mg of H2O2/dl). For PAT test, 10 μl of sample was added in a colored solution (mix of source ferric ions and chromogen). The intensity of chromatic change was measured at 505 nm. The results are expressed in UCor (1 UCor=1.4 μM of Vitamin C equivalent). The oxidative stress index was calculated as the ratio of d-ROMs test value to PAT test value.
(§1) ANOVA was performed for plasmatic parameters and student test was calculated to evaluate the significance of the differences observed in gene expression.

[4] = system: genes related to oxidative stress; assay: Oxidative stress PCR array in duodenum and ileum of weaned piglets; format: in vivo; conditions: duodenum, day 42, vs control group, p=0.019
Description: The objective of this study was to evaluate anti-oxidant enzymes supplementation (SOD and CAT) alone and in combination in early weaned piglets, and if these enzymes can potentially alleviate the oxidative stress impact on weaned piglets and consequently improve the growth performance. In the in vivo trial (example 3), plasma samples were collected at day 0 (baseline, weaning moment), day 14 and day 42 of the study for additional analysis. […]
Total RNA was extracted from tissues (stored at −20° C. in RNA later) by lysing tissue with FastPrep® 24 (MP Biomedicals, Illkirch, France), using the phenol-chloroform method (TRIzol reagent; Invitrogen, Invitrogen, Cergy Pontoise, France) followed by purification using RNeasy columns by automated method with the Qiacube HT (Qiagen, Courtaboeuf, France). The concentration of RNA was measured by NanoDrop ND-1000 Spectrophotometer (Thermo Fisher Scientific, Illkirch, France) and the purity was estimated by A260/A280 ratio. RNA integrity was assessed by using the Agilent 2100 Bioanalyzer (Agilent Technologies, Basel, Switzerland). The threshold of the RNA Integrity Number (RIN) was set at 7.5 to validate sufficient quality of the RNAs. […]
as §1

[5] = Nutritional model in piglets: growth performance (FCR); format: in vivo; conditions: d 0-42, piglets, vs NC (22% CP)
Description: Experimental Unit: Slatted Floor Pens, 4 piglets per pen (2 barrows & 2 gilts per pen)
Feed Type: Starter (Day 0-21) and Grower (Day 21-42). MASH feed is employed, using a corn-soybean type commercial ration formulation with an increase of 5-6% crude protein compared to normal commercial rations. Test material is added to the feed beginning on Day 0 and continuing through Day 42.
Replication/piglets per treatment: Treatments 1-8 fed to 12 replicates each of 4 piglets (2 barrows+2 gilts) per replicate.
Piglet Source: Piglets (post-weaned, at 21 days of age, called Day 0) are collected in early am (day of placement or Day 0), weighed (2 barrows & 2 gilts per pen), and assigned to each experimental pen. Each piglet is weighed individually and assigned to a pen, with very high and very low body weights excluded from the study. After all piglets are assigned to a pen, the body weights are checked to ensure no treatment is more than 1 standard deviation from another treatment.

Glutathione peroxidase = assay: Plasma GPx activity (GPx determination KIT); format: in vivo; conditions: piglets, day 42
Description: The concentration of total proteins was determined in liver lysate and plasma, using the Pierce™ BCA Protein Assay Kit (Thermo Fisher Scientific, Illkirch-Graffenstaden, France). The samples were processed following the supplier's recommendations. Plasma samples were diluted 100 times. 25 μL of standards or samples were added to 200 μL of working reagent and incubated 30 minutes at 37° C. The colorimetric intensity was measured at 562 nm. Results are expressed in μg of total protein per mL of sample.
The activity of the Glutathione peroxidase was determined using the GPx determination KIT (abcamab102530). Briefly, 40 μL of the colorimetric reaction mix was added to 100 μL of standards and 10 μL of cumene hydroperoxide was added to the standards and to the 50 μL of samples (Plasma samples were adjusted to bring 600 μg of total protein in the reaction). The absorbance at 340 nm was measured (A1), and after 5 min at 25° C., a second measurement was done (A2).
The GPx activity was calculated as follow:
B=NADPH amount that was decreased between T1 and T2 (in nmol).
T1=Time of the first reading (A1) (minutes).
T2=Time of second reading (A2) (minutes).
V=Pretreated sample volume added into the reaction well (mL).
D=Sample dilution factor.
as §1

In the case of “r E. coli: commercial Sigma SOD; probably recombinant SOD bovine expressed in Escherichia coli (S9697)”, the “SOD specific activity (reference)” value [1] is given as 6108 U/mg EP, the “Gastric stability: pH 3, +pepsin 15 min - residual activity value %” value ([2]; 15 min) is given as 43% and the “Gastric stability: pH 3, +pepsin 30 min - residual activity value %” value ([2]; 30 min) is given as 43%.

B1: CAT: catalase feed enzyme: SEQ ID NO 7 in Examples 1-2; in Example 4 probably treatment 6 (Product C, SEQ ID NO 250) (protein)
chain: MRHFWLLPAVAGIAGAQCPYLSGEMSFTQEQDNAGDTIEVTEQTIDNTLYVNDTGSYMTTDFGTPISDQYSLKAGRRGPTLLEDFIFRQKLQRFDHERVPERVVHARGAGAYGTFKSYADWSNVTAADFLSANEKETPMFCRFSTVVGFRGSVDTARDVHGHACRFYTDEGNYDIVGINFAPFFIQDAIQFPDLVHAIKPMPNNEIPQAATAHTSAWDFFSQQSTALHSALWLMSGNGIPRSFRHMNGYGVHSFRFVAANGTSKVVRYRWKSQQGVASLVWEEAQAAAGKNSDYHRQDLYNAIANGHYPKYELQAQIMDEADMLRFGFDLLDPTKLVPEEVVPYTPLGMMELNANPTNYFAEVEQAGFQPGHVVPGIDFTDDPLLQGRLFSYLDTQLTRHGGPNFEQIPVNRPRKPVHNNNRDGFGQQQIPTNNWAYTPNTMSNGYPMQANQTHGHGFFTSPYRYASGHLIREPSPTFHDHWSQPAMFWNSLIPAEQQMVVNAIVFENSKVNSPHVRKNVVNQLNMVNNNLAVRVARGLGLDEPSPNPTYYTSNKTSNVGTFGKPLLSIEGLQVGFLASNSHPESIKQGQAMAAQFSAAGVDLNIVTEAYADGVNTTYALSDAIDFDALIIADGVQSLFASPSLANQMNSTATSTLYPPARPYQILVDSFRYGKPVAAVGSGSAALKNAGIDTSRSGVYTGSSETTENIAKEVLKGLYTFRFVDRFALDE
modifications: Aspergillus niger; mat_peptide (1)..(740)
In the case of B1, the “reactive oxygen metabolites (d-ROM)” value ([3]; both time point (day 14 and 42)) is reported as “increase”, the “plasmatic antioxidant capacity (PAT)” value ([3]; day 14, p<0.0001 between groups) is reported as “increase” and the “GPX1 gene fold change” value [4] is reported as 1.34. For the same molecule, the FCR [5] was “significantly better than NC” and the “plasma GPx activity” value (Glutathione peroxidase) was “significant increase”.
